# According to patent US20220144956A1 (published 2022):
# Target: human TGFßRII (antigen of the Octet experiments) (human, UniProt P37173 23-166)
# Experiment: BLI (Octet)
# Sequence of human TGFßRII (antigen of the Octet experiments) (P37173 23-166): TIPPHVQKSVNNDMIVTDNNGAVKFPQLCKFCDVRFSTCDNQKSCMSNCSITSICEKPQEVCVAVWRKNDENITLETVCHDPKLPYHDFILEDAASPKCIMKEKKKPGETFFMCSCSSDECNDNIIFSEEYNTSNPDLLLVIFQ
row,Binder,Kd
1,"H1.24 L1 XENP34480 (antibody, V domains shown) VH: QLQVQESGPGLVKPSETLSLTCTVSGGSISNSHFSWGWIRQPPGKGLEWIGSFYYGEKTYYNPSLKSRATISIDTSKSQFSLKLSSVTAADTAVYYCPRGPTMIRGVIDSWGQGTLVTVSS VL: EIVLTQSPATLSLSPGERATLSCRASQSVRSYLAWYQQKPGQAPRLLIYDASNRATGIPARFSGSGSGTDFTLTISSLEPEDFAVYYCQQRSNWPPTFGQGTKVEIK",0.199 nM
2,"H1.37 L1 XENP34493 (antibody, V domains shown) VH: QLQVQESGPGLVKPSETLSLTCTVSGGSISNSYFSWGWVRQPPGKGLEWIGSFYYGEKTYYNPSLKSRATISIDTSKSQFSLKLSSVTAADTAVYYCPRGPTMIRGVIDSWGQGTLVTVSS VL: EIVLTQSPATLSLSPGERATLSCRASQSVRSYLAWYQQKPGQAPRLLIYDASNRATGIPARFSGSGSGTDFTLTISSLEPEDFAVYYCQQRSNWPPTFGQGTKVEIK",0.391 nM
3,"H1.15 L1 XENP34471 (antibody, V domains shown) VH: QLQVQESGPGLVKPSETLSLTCTVSGGSISTSYFSWGWIRQPPGKGLEWIGSFYYGEKTYYNPSLKSRATISIDTSKSQFSLKLSSVTAADTAVYYCPRGPTMIRGVIDSWGQGTLVTVSS VL: EIVLTQSPATLSLSPGERATLSCRASQSVRSYLAWYQQKPGQAPRLLIYDASNRATGIPARFSGSGSGTDFTLTISSLEPEDFAVYYCQQRSNWPPTFGQGTKVEIK",0.0115 nM
4,"H1.12 L1 XENP34468 (antibody, V domains shown) VH: QLQVQESGPGLVKPSETLSLTCTVSGGSISESYFSWGWIRQPPGKGLEWIGSFYYGEKTYYNPSLKSRATISIDTSKSQFSLKLSSVTAADTAVYYCPRGPTMIRGVIDSWGQGTLVTVSS VL: EIVLTQSPATLSLSPGERATLSCRASQSVRSYLAWYQQKPGQAPRLLIYDASNRATGIPARFSGSGSGTDFTLTISSLEPEDFAVYYCQQRSNWPPTFGQGTKVEIK",0.374 nM
5,"H1.2 L1 XENP34458 (antibody, V domains shown) VH: QVQVQESGPGLVKPSETLSLTCTVSGGSISNSYFSWGWIRQPPGKGLEWIGSFYYGEKTYYNPSLKSRATISIDTSKSQFSLKLSSVTAADTAVYYCPRGPTMIRGVIDSWGQGTLVTVSS VL: EIVLTQSPATLSLSPGERATLSCRASQSVRSYLAWYQQKPGQAPRLLIYDASNRATGIPARFSGSGSGTDFTLTISSLEPEDFAVYYCQQRSNWPPTFGQGTKVEIK",0.001 nM
6,"H1.30 L1 XENP34486 (antibody, V domains shown) VH: QLQVQESGPGLVKPSETLSLTCTVSGGSISNSYFYWGWIRQPPGKGLEWIGSFYYGEKTYYNPSLKSRATISIDTSKSQFSLKLSSVTAADTAVYYCPRGPTMIRGVIDSWGQGTLVTVSS VL: EIVLTQSPATLSLSPGERATLSCRASQSVRSYLAWYQQKPGQAPRLLIYDASNRATGIPARFSGSGSGTDFTLTISSLEPEDFAVYYCQQRSNWPPTFGQGTKVEIK",5.9 nM
7,"H1.21 L1 XENP34477 (antibody, V domains shown) VH: QLQVQESGPGLVKPSETLSLTCTVSGGSISNSAFSWGWIRQPPGKGLEWIGSFYYGEKTYYNPSLKSRATISIDTSKSQFSLKLSSVTAADTAVYYCPRGPTMIRGVIDSWGQGTLVTVSS VL: EIVLTQSPATLSLSPGERATLSCRASQSVRSYLAWYQQKPGQAPRLLIYDASNRATGIPARFSGSGSGTDFTLTISSLEPEDFAVYYCQQRSNWPPTFGQGTKVEIK",0.455 nM
8,"H1.6 L1 XENP34462 (antibody, V domains shown) VH: QLQVQESGPGLVKPSQTLSLTCTVSGGSISNSYFSWGWIRQPPGKGLEWIGSFYYGEKTYYNPSLKSRATISIDTSKSQFSLKLSSVTAADTAVYYCPRGPTMIRGVIDSWGQGTLVTVSS VL: EIVLTQSPATLSLSPGERATLSCRASQSVRSYLAWYQQKPGQAPRLLIYDASNRATGIPARFSGSGSGTDFTLTISSLEPEDFAVYYCQQRSNWPPTFGQGTKVEIK",0.0242 nM
9,"H1.7 L1 XENP34463 (antibody, V domains shown) VH: QLQVQESGPGLVKPSETLSLTCAVSGGSISNSYFSWGWIRQPPGKGLEWIGSFYYGEKTYYNPSLKSRATISIDTSKSQFSLKLSSVTAADTAVYYCPRGPTMIRGVIDSWGQGTLVTVSS VL: EIVLTQSPATLSLSPGERATLSCRASQSVRSYLAWYQQKPGQAPRLLIYDASNRATGIPARFSGSGSGTDFTLTISSLEPEDFAVYYCQQRSNWPPTFGQGTKVEIK",0.316 nM
10,"H1.23 L1 XENP34479 (antibody, V domains shown) VH: QLQVQESGPGLVKPSETLSLTCTVSGGSISNSGFSWGWIRQPPGKGLEWIGSFYYGEKTYYNPSLKSRATISIDTSKSQFSLKLSSVTAADTAVYYCPRGPTMIRGVIDSWGQGTLVTVSS VL: EIVLTQSPATLSLSPGERATLSCRASQSVRSYLAWYQQKPGQAPRLLIYDASNRATGIPARFSGSGSGTDFTLTISSLEPEDFAVYYCQQRSNWPPTFGQGTKVEIK",0.767 nM
11,"H1.14 L1 XENP34470 (antibody, V domains shown) VH: QLQVQESGPGLVKPSETLSLTCTVSGGSISSSYFSWGWIRQPPGKGLEWIGSFYYGEKTYYNPSLKSRATISIDTSKSQFSLKLSSVTAADTAVYYCPRGPTMIRGVIDSWGQGTLVTVSS VL: EIVLTQSPATLSLSPGERATLSCRASQSVRSYLAWYQQKPGQAPRLLIYDASNRATGIPARFSGSGSGTDFTLTISSLEPEDFAVYYCQQRSNWPPTFGQGTKVEIK",0.181 nM
12,"H1.22 L1 XENP34478 (antibody, V domains shown) VH: QLQVQESGPGLVKPSETLSLTCTVSGGSISNSDFSWGWIRQPPGKGLEWIGSFYYGEKTYYNPSLKSRATISIDTSKSQFSLKLSSVTAADTAVYYCPRGPTMIRGVIDSWGQGTLVTVSS VL: EIVLTQSPATLSLSPGERATLSCRASQSVRSYLAWYQQKPGQAPRLLIYDASNRATGIPARFSGSGSGTDFTLTISSLEPEDFAVYYCQQRSNWPPTFGQGTKVEIK",1.97 nM
13,"H1.38 L1 XENP34494 (antibody, V domains shown) VH: QLQVQESGPGLVKPSETLSLTCTVSGGSISNSYFSWGWIRQAPGKGLEWIGSFYYGEKTYYNPSLKSRATISIDTSKSQFSLKLSSVTAADTAVYYCPRGPTMIRGVIDSWGQGTLVTVSS VL: EIVLTQSPATLSLSPGERATLSCRASQSVRSYLAWYQQKPGQAPRLLIYDASNRATGIPARFSGSGSGTDFTLTISSLEPEDFAVYYCQQRSNWPPTFGQGTKVEIK",0.325 nM
14,"H1.19 L1 XENP34475 (antibody, V domains shown) VH: QLQVQESGPGLVKPSETLSLTCTVSGGSISNGYFSWGWIRQPPGKGLEWIGSFYYGEKTYYNPSLKSRATISIDTSKSQFSLKLSSVTAADTAVYYCPRGPTMIRGVIDSWGQGTLVTVSS VL: EIVLTQSPATLSLSPGERATLSCRASQSVRSYLAWYQQKPGQAPRLLIYDASNRATGIPARFSGSGSGTDFTLTISSLEPEDFAVYYCQQRSNWPPTFGQGTKVEIK",0.836 nM
15,"H1.28 L1 XENP34484 (antibody, V domains shown) VH: QLQVQESGPGLVKPSETLSLTCTVSGGSISNSYFAWGWIRQPPGKGLEWIGSFYYGEKTYYNPSLKSRATISIDTSKSQFSLKLSSVTAADTAVYYCPRGPTMIRGVIDSWGQGTLVTVSS VL: EIVLTQSPATLSLSPGERATLSCRASQSVRSYLAWYQQKPGQAPRLLIYDASNRATGIPARFSGSGSGTDFTLTISSLEPEDFAVYYCQQRSNWPPTFGQGTKVEIK",3.6 nM
16,"H1.13 L1 XENP34469 (antibody, V domains shown) VH: QLQVQESGPGLVKPSETLSLTCTVSGGSISGSYFSWGWIRQPPGKGLEWIGSFYYGEKTYYNPSLKSRATISIDTSKSQFSLKLSSVTAADTAVYYCPRGPTMIRGVIDSWGQGTLVTVSS VL: EIVLTQSPATLSLSPGERATLSCRASQSVRSYLAWYQQKPGQAPRLLIYDASNRATGIPARFSGSGSGTDFTLTISSLEPEDFAVYYCQQRSNWPPTFGQGTKVEIK",1 nM
17,"H1.4 L1 XENP34460 (antibody, V domains shown) VH: QLQLQESGPGLVKPSETLSLTCTVSGGSISNSYFSWGWIRQPPGKGLEWIGSFYYGEKTYYNPSLKSRATISIDTSKSQFSLKLSSVTAADTAVYYCPRGPTMIRGVIDSWGQGTLVTVSS VL: EIVLTQSPATLSLSPGERATLSCRASQSVRSYLAWYQQKPGQAPRLLIYDASNRATGIPARFSGSGSGTDFTLTISSLEPEDFAVYYCQQRSNWPPTFGQGTKVEIK",0.128 nM
18,"H1.36 L1 XENP34492 (antibody, V domains shown) VH: QLQVQESGPGLVKPSETLSLTCTVSGGSISNSYFSWSWIRQPPGKGLEWIGSFYYGEKTYYNPSLKSRATISIDTSKSQFSLKLSSVTAADTAVYYCPRGPTMIRGVIDSWGQGTLVTVSS VL: EIVLTQSPATLSLSPGERATLSCRASQSVRSYLAWYQQKPGQAPRLLIYDASNRATGIPARFSGSGSGTDFTLTISSLEPEDFAVYYCQQRSNWPPTFGQGTKVEIK",1.76 nM
19,"H1.1 L1 XENP28299 (antibody, V domains shown) VH: QLQVQESGPGLVKPSETLSLTCTVSGGSISNSYFSWGWIRQPPGKGLEWIGSFYYGEKTYYNPSLKSRATISIDTSKSQFSLKLSSVTAADTAVYYCPRGPTVIRGVIDSWGQGTLVTVSS VL: EIVLTQSPATLSLSPGERATLSCRASQSVRSYLAWYQQKPGQAPRLLIYDASNRATGIPARFSGSGSGTDFTLTISSLEPEDFAVYYCQQRSNWPPTFGQGTKVEIK",0.325 nM
20,"H1.27 L1 XENP34483 (antibody, V domains shown) VH: QLQVQESGPGLVKPSETLSLTCTVSGGSISNSYYSWGWIRQPPGKGLEWIGSFYYGEKTYYNPSLKSRATISIDTSKSQFSLKLSSVTAADTAVYYCPRGPTMIRGVIDSWGQGTLVTVSS VL: EIVLTQSPATLSLSPGERATLSCRASQSVRSYLAWYQQKPGQAPRLLIYDASNRATGIPARFSGSGSGTDFTLTISSLEPEDFAVYYCQQRSNWPPTFGQGTKVEIK",0.809 nM
21,"H1.8 L1 XENP34464 (antibody, V domains shown) VH: QLQVQESGPGLVKPSETLSLTCTVSGYSISNSYFSWGWIRQPPGKGLEWIGSFYYGEKTYYNPSLKSRATISIDTSKSQFSLKLSSVTAADTAVYYCPRGPTMIRGVIDSWGQGTLVTVSS VL: EIVLTQSPATLSLSPGERATLSCRASQSVRSYLAWYQQKPGQAPRLLIYDASNRATGIPARFSGSGSGTDFTLTISSLEPEDFAVYYCQQRSNWPPTFGQGTKVEIK",0.238 nM
22,"H1.10 L1 XENP34466 (antibody, V domains shown) VH: QLQVQESGPGLVKPSETLSLTCTVSGGSVSNSYFSWGWIRQPPGKGLEWIGSFYYGEKTYYNPSLKSRATISIDTSKSQFSLKLSSVTAADTAVYYCPRGPTMIRGVIDSWGQGTLVTVSS VL: EIVLTQSPATLSLSPGERATLSCRASQSVRSYLAWYQQKPGQAPRLLIYDASNRATGIPARFSGSGSGTDFTLTISSLEPEDFAVYYCQQRSNWPPTFGQGTKVEIK",0.182 nM
